Like-named read-outs stand apart in the source and are kept apart here.
Legend:
[1] = biological target: T1, Delta Plus CoV S glycoprotein (recombinant) (Severe acute respiratory syndrome …, UniProt P0DTC2 14-1273)
[2] = biological target: BV2589 (recombinant CoV S glycoprotein, BQ.1.1) (SARS-CoV-2, UniProt P0DTC2 14-1273); assay: ELISA on coated rS
[3] = biological target: BV2541 (recombinant CoV S glycoprotein, BA.4) (SARS-CoV-2, UniProt P0DTC2 14-1273)
[4] = biological target: BV2373 (recombinant CoV S glycoprotein, Prototype) (SARS-CoV-2, UniProt P0DTC2 14-1273); assay: ELISA on coated rS
[5] = biological target: BV2425 (recombinant CoV S glycoprotein, Alpha) (SARS-CoV-2, UniProt P0DTC2 14-1273); assay: ELISA on coated rS
[6] = biological target: BV2438 (recombinant CoV S glycoprotein, Beta) (SARS-CoV-2, UniProt P0DTC2 14-1273); assay: ELISA on coated rS
[7] = biological target: T2, BV2443 (recombinant CoV S glycoprotein, Gamma) (SARS-CoV-2, UniProt P0DTC2 14-1273); assay: ELISA on coated rS
[8] = biological target: BV2465 (recombinant CoV S glycoprotein, Delta) (SARS-CoV-2, UniProt P0DTC2 14-1273); assay: ELISA on coated rS
[9] = biological target: BV2509 (recombinant CoV S glycoprotein, BA.1) (SARS-CoV-2, UniProt P0DTC2 14-1273); assay: ELISA on coated rS
[10] = biological target: T1, Delta Plus CoV S glycoprotein …; assay: ELISA on coated rS
[11] = biological target: T2, BV2443 (recombinant CoV S glycoprotein, …)

B1: 322.3 (antibody, V domains shown)
VH: RVQLQQSGPELVKPGASVTISCKASGYIFTSDYIHWVKQRPGQGPEWIGWIYPGNINTKYNEKFKGKATLTADKSSSTAYMQLSSLTSEDSAVYFCARDDGNLYYYAMDYWGQGTSVTVSS
VL: NIVLTQSPASLAVSLGQRATISCRASESVDSYGSSFMHWYQQKPGQPPKLLIYLASNLESGVPARFSGSGSRTDFTLTIDPVEADDAATYYCQQNNEDPRTFGGGTKLEIK
- EC50 [1]: 0.054 µg/mL
- EC50 [2]: 0.077 µg/mL

B2: 35.13 (antibody, V domains shown)
VH: QVQLQQSGAELGKPGASVKLSCRASGYTFTRYYIYWVKQRPGQGLEWIGEINPSNGDTHFNEKFKTKATLTVDKSSSSAHIHLTSLTSEDSAVYYCSIHAYSFDFWGQGTTLTVSS
VL: EIQMTQSPSSMSASLGDRITITCQATQDIVKNLNWYQQKPGKPPSFLIYHATELAKGVPSRFSGSGSGSDYSLTISNLESEDFADYYCLQFYDFPFTFGAGTKLELKR
- IC50 [3]: > 3 µg/mL
- EC50 [4]: 0.007 µg/mL
- EC50 [5]: 0.011 µg/mL
- EC50 [6]: 0.119 µg/mL
- EC50 [7]: 0.012 µg/mL
- EC50 [8]: 0.01 µg/mL
- EC50 [9]: 0.05 µg/mL
- EC50 [10]: 0.011 µg/mL

B3: 425.6 (antibody, V domains shown)
VH: VQLKQSGPSLVQPSQSLSITCTVSGFSLTSYGIHWVRQSPGKGLEWLGVIWRGGSTDYNAAFMSRLTITKDNSKSQVFFKMNSLQADDTAIYYCATHTEGDDVDYWGQGTSVTVSS
VL: QIVLTQSPAIMSVSPGEKVTMTCSASSTMSFMYWYQQKPGSSPRLLIYDTSNLASGVPVRFSGSGSGTSYSLTISRVEAEDAATYYCQQWNTYPLTFGAGTKLELKR
- Kd [11]: 3.52 pM
